A word on the Kd: it is the constant that tells how readily two partners part at equilibrium. A low value points to higher affinity.

The text below walks through data of article PMC5632138 (Journal of molecular biology, 2017).

Assay [1] has as its target T1, Full-length ETV4 Lys370Ala (UniProt P43268 1-484, Lys370Ala).
T1 sequence (looked up): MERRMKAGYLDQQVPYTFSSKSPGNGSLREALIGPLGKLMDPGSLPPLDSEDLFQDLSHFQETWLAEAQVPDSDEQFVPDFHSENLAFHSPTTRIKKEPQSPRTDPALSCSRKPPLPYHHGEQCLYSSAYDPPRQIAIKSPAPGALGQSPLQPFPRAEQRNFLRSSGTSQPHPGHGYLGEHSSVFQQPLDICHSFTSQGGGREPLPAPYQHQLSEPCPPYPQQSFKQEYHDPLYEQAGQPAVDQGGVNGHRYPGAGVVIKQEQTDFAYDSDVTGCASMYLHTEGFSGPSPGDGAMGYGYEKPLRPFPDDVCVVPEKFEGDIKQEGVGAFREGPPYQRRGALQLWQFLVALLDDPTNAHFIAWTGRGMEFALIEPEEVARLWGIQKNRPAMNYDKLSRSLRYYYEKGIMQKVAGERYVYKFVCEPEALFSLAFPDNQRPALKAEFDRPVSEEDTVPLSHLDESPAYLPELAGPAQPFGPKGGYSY
Briefly: BLI. In general terms: In BLI a coated tip is dipped into the sample, and binding shifts an interference pattern.

The target of the next assay is JUN/FOS heterodimers (UniProt P05412 1-331; P01100 1-380). The assay can be described thus: BLI.
Sequence of JUN/FOS heterodimers (P05412 whole entry, chain 1 of 2): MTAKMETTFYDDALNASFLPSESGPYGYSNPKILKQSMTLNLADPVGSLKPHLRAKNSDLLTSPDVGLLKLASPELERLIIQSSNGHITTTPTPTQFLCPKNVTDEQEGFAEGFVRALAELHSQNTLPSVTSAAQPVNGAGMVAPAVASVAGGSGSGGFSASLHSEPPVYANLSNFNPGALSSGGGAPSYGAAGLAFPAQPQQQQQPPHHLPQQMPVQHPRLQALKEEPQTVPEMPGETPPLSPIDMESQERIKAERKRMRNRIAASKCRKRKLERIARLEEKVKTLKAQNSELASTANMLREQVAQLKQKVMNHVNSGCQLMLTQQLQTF
Sequence of JUN/FOS heterodimers (P01100 whole entry, chain 2 of 2): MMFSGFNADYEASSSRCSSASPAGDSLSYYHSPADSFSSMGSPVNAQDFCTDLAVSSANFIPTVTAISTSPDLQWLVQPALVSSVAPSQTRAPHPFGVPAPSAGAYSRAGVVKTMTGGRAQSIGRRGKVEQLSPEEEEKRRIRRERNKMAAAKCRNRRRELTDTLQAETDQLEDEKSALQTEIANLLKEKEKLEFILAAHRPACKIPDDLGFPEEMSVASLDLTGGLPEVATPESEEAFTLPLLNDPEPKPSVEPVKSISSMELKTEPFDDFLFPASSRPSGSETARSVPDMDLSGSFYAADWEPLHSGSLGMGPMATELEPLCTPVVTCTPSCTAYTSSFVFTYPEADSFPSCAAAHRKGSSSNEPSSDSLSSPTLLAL

B1: MED25 ACID (residues 391–553), biotinylated ligand for biolayer interferometry (domain or fragment, human, UniProt Q71SY5 391-553, looked up)
chain: GQQSVSNKLLAWSGVLEWQEKPKPASVDANTKLTRSLPCQVYVNHGENLKTEQWPQKLIMQLIPQQLLTTLGPLFRNSRMVQFHFTNKDLESLKGLYRIMGNGFAGCVHFPHTAPCEVRVLMLLYSSKKKIFMGLIPYDQSGFVNGIRQVITNHKQVQQQKLE
modifications: biotin (biotinylated; D-biotin added at the induction point)
For the molecule B1, the binding result in assay [1] was “binds”. Further, binding with JUN/FOS heterodimers was put at a Kd of 5 nM.
